For 3 molecules, Kd results are on record in PMC9700832 (2022).

Usually Kd stands for the equilibrium constant for the complex coming apart. Low readings indicate higher affinity, high ones lower affinity.

To fix the notation:
B3: B. thuringiensis serovar israelensis LexA (natural protein)
chain: MEKLTKRQQDILDFIKLKVQEKGYPPSVREIGQAVGLASSSTVHGHLSRLEEKGYIRRDPTKPRAIEILGEDRMDTETQSVIQVPIVGKVTAGLPITAVESVEEHFPLPASIVAGADQVFMLRISGDSMIEAGIFDGDLVVVRQQQSAYNGEIVVALTEDNEATVKRFYKEKDHFRLQPENSSLEPIILKQVSVIGKVIGVYRDLH

What all share (experiment): SPR
The target in experiment [1] is B3.
Experiment [2] deals with tectiviral gp7 homolog from the phage found in B. thuringiensis serovar aizawai (tectiviral phage found in B. …).
In experiment [3] the target is tectiviral gp7 homolog from B. cereus AND1284 phage Sato (phage Sato (B. cereus AND1284)).
The target in experiment [4] is tectiviral gp7 homolog from the phage found in B. cereus VD184 (tectiviral phage found in B. cereus …).
Experiment [5] has as its target tectiviral gp7 homolog from B. anthracis phage AP50 (phage AP50 (B. anthracis)).

B1: gp7 protein of GIL01 phage (natural protein)
chain: MRDKLLDFIIELSQSSKQVVSKSYVIDRLMQVTKEDYKELEKNVEGKKDD
B1 had a Kd in experiment [1] of 169 nM.

B2: tectiviral gp7 homolog from B. mycoides VDm034 phage Lima (natural protein)
chain: MRDKLLDFIIELSQSSKQVVAKDYVIDRLMQVTKEDYKEMEKKTEGKKN
In the case of B2, the Kd in experiment [1] was 185 nM.
Take B3: the Kd in experiment [2] amounted to 150 nM; in experiment [3], 190 nM; in experiment [4], 148 nM; in experiment [5], 167 nM.
